Usually IC50 stands for the concentration at which inhibition is half-maximal.

Read-outs that look alike come from different tables or passages of the source.

For test [1], the target named is T1, CXCR4 chemokine receptor (human), P61073.
T1 chain: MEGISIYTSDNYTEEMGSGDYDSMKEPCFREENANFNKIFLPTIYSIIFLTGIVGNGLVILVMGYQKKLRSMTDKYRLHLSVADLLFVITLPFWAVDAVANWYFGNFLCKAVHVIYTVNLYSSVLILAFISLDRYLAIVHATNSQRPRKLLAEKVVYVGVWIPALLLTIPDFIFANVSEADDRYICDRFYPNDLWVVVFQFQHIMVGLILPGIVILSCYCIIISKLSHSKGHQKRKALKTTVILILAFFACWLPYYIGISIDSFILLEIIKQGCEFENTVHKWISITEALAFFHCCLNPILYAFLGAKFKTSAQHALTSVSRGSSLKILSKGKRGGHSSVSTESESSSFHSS
The test can be described thus: cell-based or functional assay.

Test [2] shares this target. In words: ^125I-SDF-1α competitive binding assay, IC50 against SDF-1.
The target is the same in test [3]. In words: anti-CXCR4 mAb 12G5 competitive binding assay, IC50 against SDF-1.
For test [4] the target is unchanged.
The target is the same in test [5]. In words: anti-CXCR4 mAb 12G5 competitive binding assay.

As for LGASWHRPDKCCLGYQKRPLP (modifications not checked) [V1 peptide (vMIP-II, 1-21)], the chemotaxis assay, IC50 in test [1] worked out at 1000 nM. For the same molecule, the intracellular calcium influx in Sup T1 cells: block of the SDF-1 signal in test [1] was found to be 200 µM. The fold less potent than SDF-1 amounted to 70 fold in test [2] and 33 fold in test [3]. In addition, the 50% inhibitory concentration (IC50) in test [4] was 190 nM; in test [5], 640 nM.
